Data published in US10407469B2, “Programmable polypeptide and nucleic acid nanoparticles” (Northwestern University, priority 2016, dated 2019).

Legend:
[1] = system: siRNA; experiment: siRNA binding, electrophoresis gels; conditions: compared with P4
From the text: (§1) FIGS. 1A-I. Nanoparticles of an engineered polypeptide carrying siRNA (A) C-terminus RNA binding motif CT-dsRBD (in yellow) excised from a canonical double stranded RNA binding domain (dsRBD) and fused to a self-assembly enhancer […] in order to obtain the engineered RNA binding polypeptide (P4) (B) electrophoresis gels of proteins binding siRNA (left). Plot of the bound siRNA (right). (C) Structural change of P4 and CT-dsRBD upon binding to siRNA determined by circular dichroism. (D) Increase in hydrodynamic size of P4 upon siRNA binding determined by DLS. (E) siRNA-P4 nanoparticles in solution imaged by cryo-TEM. Scale bar is 200 nm. […] (H) Salt stability of P4 nanoparticles. (I) Formation of siRNA-P4 nanoparticles in different buffers.
(§2) FIGS. 2A-J. Programmable protein for bioactive siRNA delivery nanoparticles. (A) P4 is functionalized with bioactive peptides, P4-RGD & P4-His6. […] (E) Ellipticity change in function of siRNA concentration (bottom scale) and P4-to-siRNA stoichiometry (top scale). (F) Hydrodynamic size and (G) Zeta potential of P4 nanoparticles. (H & I) Cryo-TEM and (j) AFM micrographs of siRNA-P4 nanoparticles.

[2] = system: siRNA; experiment: Structural change upon siRNA binding, circular dichroism; type: physicochemical
From the text: as §1, §2

[3] = system: siRNA; experiment: Nanoparticle self-assembly upon siRNA binding (DLS, cryo-TEM); type: physicochemical
From the text: as §1, §2

| Substance | binding to siRNA / nucleic acid cargo [1] | Structural change triggered by siRNA binding [2] | self-assembly into nanoparticles upon binding to nucleic acid [3] | hydrodynamic size upon siRNA binding ([3]; determined by DLS) |
| --- | --- | --- | --- | --- |
| P4-RGD: P4 functionalized with bioactive peptide RGD (CRGDCSIRKLEYEIEELRLRIGGGTFVETGSGTSKQVAKRVAAEKLLTKFKT) | bind to siRNA similarly as P4 | triggered by siRNA binding as in P4 |  |  |
| P4-His6: P4 functionalized with bioactive peptide His6 (HHHHHHSIRKLEYEIEELRLRIGGGTFVETGSGTSKQVAKRVAAEKLLTKFKT) | bind to siRNA similarly as P4 | triggered by siRNA binding as in P4 |  |  |
| P4: engineered RNA binding polypeptide: CT-dsRBD RNA binding motif fused to a self-assembly enhancer helix (SIRKLEYEIEELRLRIGGGTFVETGSGTSKQVAKRVAAEKLLTKFKT) |  |  | self-assembles into nanoparticles upon binding to siRNA | Increase |
